In publication PMC2563026:

Experiments:
[1] = target: CXCR4, endogenous on feline cells (feline (endogenous in MCC)) (UniProt P56498)
[2] = target: chimeric receptor bearing feline CD134 CRD1 in the context of human CD134, on cells (feline | human)
[3] = target: CXCR4, endogenous on feline cells (feline (endogenous in MCC)) (UniProt P56498); assay: flow cytometry on cells; MCC cells stably transduced with fCD134, the CRD1 chimera, human CD134 or vector only were incubated with Fc-SU fusion proteins; bound protein detected with PE-anti-human IgG Fc; 10,000 events

Chain of UniProt P56498 (P56498 whole entry, the tested form may be a part): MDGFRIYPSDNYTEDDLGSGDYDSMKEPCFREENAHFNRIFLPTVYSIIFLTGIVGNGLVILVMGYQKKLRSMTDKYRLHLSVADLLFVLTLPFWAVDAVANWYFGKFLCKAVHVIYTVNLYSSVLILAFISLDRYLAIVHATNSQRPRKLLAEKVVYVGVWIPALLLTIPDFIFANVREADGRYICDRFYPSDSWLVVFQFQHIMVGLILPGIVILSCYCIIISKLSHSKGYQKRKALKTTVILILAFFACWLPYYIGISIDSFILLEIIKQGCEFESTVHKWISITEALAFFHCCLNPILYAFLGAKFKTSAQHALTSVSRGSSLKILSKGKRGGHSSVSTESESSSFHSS

**Q.** Which entry of HIV(FIV) pseudotypes into MYA-1 cells with the CXCR4 antagonist AMD3100 at 0.1 μg/ml, fold reduction [1] does the source give for “FIV CPG41 Env, wild type, on HIV(FIV) luciferase pseudotypes (natural protein)” here?
**A.** 5 fold

**Q.** “FIV GL8 Env Δ2N double mutant (T271I and N342Y), on HIV(FIV) luciferase pseudotypes (natural protein)” was tested. Which infection of MCC-CRD1 cells by HIV(FIV) luciferase pseudotypes, fold reduction [2] did it give?
**A.** 47 fold

**Q.** With “FIV GL8 Env, wild type, on HIV(FIV) luciferase pseudotypes (natural protein)” as the substance, how does the infection of MCC-CRD1 cells by HIV(FIV) luciferase pseudotypes, fold less efficient than on MCC cells expressing CD134 [2] read?
**A.** 300 fold

**Q.** What about the entry of HIV(FIV) pseudotypes into MYA-1 cells with the CXCR4 antagonist AMD3100 at 0.1 μg/ml, fold reduction [1] of the same substance?
**A.** 100 fold

**Q.** “FIV GL8 Env T271I, on HIV(FIV) luciferase pseudotypes (natural protein)” was tested. Which infection of MCC-CRD1 cells by HIV(FIV) luciferase pseudotypes, fold reduction [2] did it give?
**A.** 27 fold

**Q.** How did the percent binding of Fc-SU (human CD134-expressing MCC cells) [3] turn out when “FIV GL8 Env SU-Fc fusion protein, wild type” was run?
**A.** 17.2%
